The Kd is a measure of binding affinity in units of concentration. A low value points to a tighter complex. The koff is the rate constant with which the complex falls apart. The term kon denotes a measure of how fast the partners come together. The term EC50 denotes the concentration that produces a half-maximal response. The IC50 is the point on the concentration scale where inhibition reaches its midpoint. High values mean a need for much substance, low ones inhibition by little substance.

Where two headings read alike, the source gives them in different places.

Test [1] concerns the target T1, human PD-L1 protein with histidine tag (NovoProtein, C315) (human, UniProt Q9NZQ7 19-239, limits assumed, biotinylated with EZ-Link Sulfo-NHS-LC-Biotin in the epitope competition experiments (Examples 8 and 20); not biotinylated in the affinity experiments).
T1 construct: bought reagent; also called biotinylated PD-L1 protein; not shown: histidine tag
Briefly: BLI (Octet), antibody on AHC sensor, antigen 60 nM, 1:1 local fit. Background: BLI is a label-free optical method that tracks binding on a fibre tip over time.

Test [2] has as its target T2, cynomolgus PD-L1 on CHO-K1 cells (CHO-K1/cynoPD-L1, Nanjing Genscript, M00573) (cynomolgus, UniProt G7PSE7 19-290).
T2 construct: also called CHO-K1 cells overexpressing cynomolgus PD-L1
Briefly: flow cytometry on CHO-K1/cynoPD-L1 cells. Background: Flow cytometry measures light scatter and fluorescence of single cells or particles in a stream.
Source text: To study the binding activity of the PD-L1 antigen binding proteins to human/cynomolgus PD-L1 in vitro, this example uses the CHOK1 cell line overexpressing human PD-L1 (CHO-K1/hPD-L1, Nanjing Genscript, M00543) or the CHOK1 cell line overexpressing cynomolgus PD-L1 (CHO-K1/cynoPD-L1, Nanjing Genscript, M00573) to perform binding experiments at cellular level. In brief, the PD-L1 cells were digested, and resuspended in F-12K complete medium, and the cell density was adjusted to 1× 10⁶ cells/mL. […] The cells were placed at 4° C., incubated away from light for 1 hr. Then, 100 μL/well of pre-cooled PBS was added to wash cells twice. The cells were centrifuged at 500 g, 4° C. for 5 mins, and the supernatant was discarded. […] 200 μL/well of pre-cooled PBS was added to wash cells twice, and the cells were centrifuged at 500 g, 4° C. for 5 mins, and the supernatant was discarded. Finally, the cells were resuspended with 200 μL/well of pre-cooled PBS. The signal values of fluorescent luminescence were read using BD FACS MAYTOII. The flow cytometer BD FAC MAYTOII was used to read the signal values of fluorescent luminescence, and the software FlowJo v10 (FlowJo, LLC) was used to process and analyze data. The software GraphPad Prism 8 was applied to perform data processing and plotting analysis, and the parameters such as binding curves and EC50 values were obtained by four-parameter non-linear fitting.

Test [3] concerns the target T3, human PD-L1 on CHO-K1 cells (CHO-K1/hPD-L1, Nanjing Genscript, M00543) (human, UniProt Q9NZQ7 19-290).
T3 construct: whole, on cells; also called CHO-K1 cells overexpressing human PD-L1; human PD-L1 on the cell surface
Briefly: flow cytometry competition: biotin-hPD-1 binding to CHO-K1/hPD-L1 cells.
Procedure: (§1) In brief, the CHO-K1/hPD-L1 cells were digested, and resuspended in F-12K complete medium. The cell density was adjusted to 1× 10⁶ cells/mL. […] Cells were placed at 4° C., and were incubated away from light for 1 hr. Then, the cells were centrifugated at 4° C. for 5 mins, and the supernatant was discarded. […] The cells were washed with 100 μL/well of pre-cooled PBS twice, centrifuged at 500 g, 4° C. for 5 mins, and the supernatant was discarded. […] 200 μL/well of pre-cooled PBS was used to wash cells twice, cells were centrifuged at 500 g, 4° C. for 5 mins, the supernatant was discarded. Finally, 200 μL/well of pre-cooled PBS was used to resuspend cells. The BD FACS MAYTOII was used to read the signal value of fluorescent luminescence. The software GraphPad Prism 8 was applied to perform data processing and plotting analysis, and the parameters such as binding curves and IC50 values were obtained by four-parameter non-linear fitting.

Test [4] has as its target T4, Human PD-L1 (Acrobiosystems, PD1-H5229) (human, UniProt Q9NZQ7 19-238).
T4 construct: bought reagent; also called human PD-L1 protein
Put plainly: ELISA, coated human PD-L1. Background: In an ELISA, binding on a coated surface is turned into a signal by an enzyme label.
Procedure: After the liquid was discarded, the PBST buffer (pH 7.4, containing 0.05% tween-20) was used to wash the plate for 3 times. 250 μL of 2% BSA blocking buffer was added, and was incubated at the condition of 37° C. for 1 hr. The blocking buffer was discarded, and the PBST buffer (pH 7.4, containing 0.05% tween-20) was used to wash the plate for 3 times. The antigen binding proteins to be tested, serially diluted 5-fold starting from the concentration of 100 nM, 8 concentration gradients in total, were added at 100 μL per well, and were then incubated at 37° C. for 1 hr. […] After washing with PBST buffer (pH 7.4, containing 0.05% tween-20) for three times, the goat anti-human HRP secondary antibody (Invitrogen, A18805) that was diluted 4000-fold was added, and was incubated away from light at the condition of 37° C. for 1 hr. After washing by PBST buffer (pH 7.4, containing 0.05% tween-20) for three times, 100 μL/well of TMB (Biopanda, TMB-S-003) was added, and was placed away from light at room temperature for about 5 mins; stop solution (BBI life sciences, E661006-0200) was added to each well at 50 μL/well to stop the reaction. The Microplate Reader Enspire (PerkinElemer) was used to detect the absorption values at 450 nm (OD450). The software GraphPad Prism 8 was applied to perform data processing and plotting analysis, the parameters such as binding curves and EC50 values were obtained by four-parameter non-linear fitting.

Test [5] deals with T1, human PD-L1 protein with histidine tag …. Briefly: BLI (Octet), antibody on AHC sensor, antigen 50~1.56 nM, 1:1 global fit.
Procedure: When using Octet Data Analysis software (Fortebio, version 11.0) for data analysis, the double deduction mode (double reference) was selected to deduct the reference signal, the “1:1 Global fitting” method was selected for data fitting, the kinetic parameters of the binding of the antigen and the antigen binding proteins were calculated, and the kₒₙ (1/Ms) values, kdis (1/s) values and KD (M) values were obtained.
Test [6] addresses T5, human PD-L1 on Hep3B cells co-expressing human PD-L1 and OS8 (human, UniProt Q9NZQ7 19-290). Put plainly: cell-based or functional assay.
Test [7] concerns the target T3, human PD-L1 on CHO-K1 cells …. Put plainly: flow cytometry on CHO-K1/hPD-L1 cells.
Source text: (§2) To study the binding activity of the PD-L1 antigen binding proteins to human/cynomolgus PD-L1 in vitro, this example uses the CHOK1 cell line overexpressing human PD-L1 (CHO-K1/hPD-L1, Nanjing Genscript, M00543) or the CHOK1 cell line overexpressing cynomolgus PD-L1 (CHO-K1/cynoPD-L1, Nanjing Genscript, M00573) to perform binding experiments at cellular level. In brief, the PD-L1 cells were digested, and resuspended in F-12K complete medium, and the cell density was adjusted to 1× 10⁶ cells/mL. […] The cells were placed at 4° C., incubated away from light for 1 hr. Then, 100 μL/well of pre-cooled PBS was added to wash cells twice. The cells were centrifuged at 500 g, 4° C. for 5 mins, and the supernatant was discarded. […] 200 μL/well of pre-cooled PBS was added to wash cells twice, and the cells were centrifuged at 500 g, 4° C. for 5 mins, and the supernatant was discarded. Finally, the cells were resuspended with 200 μL/well of pre-cooled PBS. The signal values of fluorescent luminescence were read using BD FACS MAYTOII. The flow cytometer BD FAC MAYTOII was used to read the signal values of fluorescent luminescence, and the software FlowJo v10 (FlowJo, LLC) was used to process and analyze data. […]
Test [8] has the same target. Put plainly: flow cytometry on CHO-K1/hPD-L1 cells. The source holds these as a separate data set.
Source text: as §2
Test [9] shares this target. Put plainly: flow cytometry competition: biotin-hPD-1 binding to CHO-K1/hPD-L1 cells. This is another data set of the same source.
Procedure: as §1
Test [10] addresses T5, human PD-L1 on Hep3B cells …. Briefly: cell-based or functional assay. The source holds these as a separate data set.
Test [11] concerns the target T3, human PD-L1 on CHO-K1 cells …. Put plainly: flow cytometry competition: biotin-hPD-1 binding to CHO-K1/hPD-L1 cells. This is another data set of the same source.
Procedure: as §1

T2 sequence (G7PSE7 entry or part of it limits assumed, one chain of several): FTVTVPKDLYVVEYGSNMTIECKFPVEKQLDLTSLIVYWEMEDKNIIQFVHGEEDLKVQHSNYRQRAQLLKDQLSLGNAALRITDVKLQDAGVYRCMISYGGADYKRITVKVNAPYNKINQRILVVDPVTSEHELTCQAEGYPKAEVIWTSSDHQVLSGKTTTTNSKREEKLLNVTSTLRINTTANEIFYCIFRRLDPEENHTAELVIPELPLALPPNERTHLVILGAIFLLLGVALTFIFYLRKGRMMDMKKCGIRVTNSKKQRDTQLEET
T1 sequence (Q9NZQ7 19-239 limits assumed): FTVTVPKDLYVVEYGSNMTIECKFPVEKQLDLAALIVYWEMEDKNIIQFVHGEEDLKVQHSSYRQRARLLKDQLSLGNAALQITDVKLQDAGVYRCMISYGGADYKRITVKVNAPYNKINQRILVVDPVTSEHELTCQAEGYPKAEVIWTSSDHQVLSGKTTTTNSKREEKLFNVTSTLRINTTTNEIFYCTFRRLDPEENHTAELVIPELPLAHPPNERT
T4 sequence (Q9NZQ7 19-238 limits assumed): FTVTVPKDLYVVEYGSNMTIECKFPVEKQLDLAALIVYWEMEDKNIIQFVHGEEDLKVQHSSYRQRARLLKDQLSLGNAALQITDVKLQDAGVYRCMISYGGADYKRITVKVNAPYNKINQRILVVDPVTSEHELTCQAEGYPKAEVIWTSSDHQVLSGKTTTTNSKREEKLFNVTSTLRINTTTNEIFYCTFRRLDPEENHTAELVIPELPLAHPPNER
T3 sequence (Q9NZQ7 19-290, one chain of several): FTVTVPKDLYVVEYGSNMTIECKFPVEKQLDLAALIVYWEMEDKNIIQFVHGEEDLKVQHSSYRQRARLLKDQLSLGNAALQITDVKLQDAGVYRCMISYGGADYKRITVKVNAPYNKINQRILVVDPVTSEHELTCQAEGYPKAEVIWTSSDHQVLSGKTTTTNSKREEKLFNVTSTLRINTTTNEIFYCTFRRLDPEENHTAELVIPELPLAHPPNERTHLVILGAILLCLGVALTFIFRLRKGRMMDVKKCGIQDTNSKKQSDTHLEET
T5 sequence (Q9NZQ7 19-290): as the sequence (Q9NZQ7 19-290, one chain of several) above

B1: PR000265 (antibody, human IgG1, kappa, N297A)
heavy: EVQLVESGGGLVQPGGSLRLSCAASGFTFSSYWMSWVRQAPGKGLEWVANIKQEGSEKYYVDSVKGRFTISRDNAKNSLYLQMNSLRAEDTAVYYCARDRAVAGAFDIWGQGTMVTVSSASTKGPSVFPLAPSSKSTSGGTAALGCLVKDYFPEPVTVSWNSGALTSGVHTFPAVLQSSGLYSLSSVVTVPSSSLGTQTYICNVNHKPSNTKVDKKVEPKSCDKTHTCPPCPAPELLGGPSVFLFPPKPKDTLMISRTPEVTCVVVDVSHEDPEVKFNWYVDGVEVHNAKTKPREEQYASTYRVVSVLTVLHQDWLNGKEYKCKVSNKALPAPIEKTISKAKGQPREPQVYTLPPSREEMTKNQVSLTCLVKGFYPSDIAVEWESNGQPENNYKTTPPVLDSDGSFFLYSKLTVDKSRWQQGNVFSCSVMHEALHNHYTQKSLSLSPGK
light: DIQMTQSPSTLSASVGDRVTVTCRASQSIYIWLAWYQQKPGKAPNLLIYKASSLETGVPSRFSGSGSGTEFTLTISSLQPDDFATYYCQQYYGSSRTFGQGTKVEIKRTVAAPSVFIFPPSDEQLKSGTASVVCLLNNFYPREAKVQWKVDNALQSGNSQESVTEQDSKDSTYSLSSTLTLSKADYEKHKVYACEVTHQGLSSPVTKSFNRGEC
notes: heavy chain human IgG1 (N297A)
As to B1, in [1], the affinity, expressed as Kd, was 409 pM; the koff was 0.000106 s⁻¹; the kon came to 260000 M⁻¹ s⁻¹. In test [2], this molecule showed a 50% effective concentration (EC50) of 451 pM and an MFI maximum value of 22600 MFI. Further, in [3], the 50% inhibitory concentration (IC50) came out at 604 pM and the “Maximum inhibition rate (%)” value was 93.6%. In test [4], this molecule gave a 50% effective concentration (EC50) of 37.3 pM. In [5], this molecule yielded a Kd of 106 pM, a koff of 7.09e-05 s⁻¹ and a kon of 669000 M⁻¹ s⁻¹. In test [6], the “EC50 (nM), PD-1 / NFAT-luciferase reporter” value is 0.533 nM and the “Maximum fluorescence value (RLU)” value amounted to 50700 RLU.

B2: PR000266 (antibody, human IgG1, kappa, N297A, V domains shown)
VH: EVQLVESGGGLVQPGGSLRLSCAASGFTFSSYWMSWVRQAPGKGLEWVANIKQDASEKYYVDSVKGRFTISRDNAKNSLYLQMNSLRAEDTAVYYCARDRAVAGAFDIWGQGTMVTVSS
VL: DIQMTQSPSTLSASVGDRVTVTCRASQSIYIWLAWYQQKPGKAPNLLIYKASSLETGVPSRFSGSGSGTEFTLTISSLQPDDFATYYCQQYYGSSRTFGQGTKVEIKR
notes: as for B1
Regarding B2, in [1], the dissociation constant (Kd) is 349 pM, the koff turned out to be 9.62e-05 s⁻¹ and the on-rate constant (kon) amounted to 276000 M⁻¹ s⁻¹. In [2], this molecule gave a half-maximal effective concentration (EC50) of 562 pM and an MFI maximum value of 22400 MFI. In test [3], the IC50 came out at 838 pM and the “Maximum inhibition rate (%)” value stood at 91.5%. This molecule displayed a half-maximal effective concentration (EC50) in test [4] of 41.5 pM. In addition, in test [6], the “EC50 (nM), PD-1 / NFAT-luciferase reporter” value worked out at 0.68 nM and the “Maximum fluorescence value (RLU)” value was 48400 RLU.

B3: PR000416 (antibody, human IgG1, kappa)
heavy: not shown
light: DIQMTQSPSTLSASVGDRVTVTCRASQSIYIWLAWYQQKPGKAPNLLIYKASSLETGVPSRFSGSGSGTEFTLTISSLQPDDFATYYCQQYYGSSRTFGQGTKVEIKRTVAAPSVFIFPPSDEQLKSGTASVVCLLNNFYPREAKVQWKVDNALQSGNSQESVTEQDSKDSTYSLSSTLTLSKADYEKHKVYACEVTHQGLSSPVTKSFNRGEC
notes: PR000265 with the heavy chain constant region replaced by the human IgG1 constant region without mutation; also called Fc-type switching of PR000265
Take B3: in test [7], the EC50 stood at 258 pM and the MFI maximum value was found to be 40400 MFI. In [8], this molecule returned an EC50 of 231 pM and an MFI maximum value of 37900 MFI. Besides, in [9], the IC50 worked out at 190 pM. Further, in test [10], the “EC50 (nM), PD-1 reporter gene cell line” value came out at 0.077 nM and the “Maximum fluorescence value (RLU)” value was 3660 RLU. Further, in test [11], the IC50 stood at 127 pM.

B4: PR000267 (antibody, human IgG1, kappa, N297A, V domains shown)
VH: EVQLVESGGGLVQPGGSLRLSCAASGFTFSSYWMSWVRQAPGKGLEWVANIKQEGSEKYYGDSVKGRFTISRDNAKNSLYLQMNSLRAEETAVYYCARDRAVAGASDIWGQGTMVTVSS
VL: DIQMTQSPSTLSASVGDRVTITCRASQSISSWLAWYQQKPGKAPNLLIYKASSLETGVPSRFSGSGSGTEFTLTISSLQPDDFATYYCQQYYGYSRTFGQGTKVEIKR
notes: as for B1
In [2], B4 had an EC50 of 775 pM and an MFI maximum value of 22400 MFI. In [3], the IC50 came out at 1040 pM and the “Maximum inhibition rate (%)” value worked out at 91%. The molecule further yielded an EC50 in test [4] of 46.2 pM. Further, in test [6], the “EC50 (nM), PD-1 / NFAT-luciferase reporter” value was 0.796 nM and the “Maximum fluorescence value (RLU)” value was determined as 43000 RLU.

B5: PR000268 (antibody, human IgG1, kappa, N297A, V domains shown)
VH: EVQLVESGGGLVQPGGSLRLSCAASGFTFSSYWMSWVRQAPGKGLEWVANIKQDASEKYYGDSVKGRFTISRDNAKNSLYLQMNSLRAEETAVYYCARDRAVAGASDIWGQGTMVTVSS
VL: DIQMTQSPSTLSASVGDRVTITCRASQSISSWLAWYQQKPGKAPNLLIYKASSLETGVPSRFSGSGSGTEFTLTISSLQPDDFATYYCQQYYGYSRTFGQGTKVEIKR
notes: as for B1
In test [2], B5 returned a 50% effective concentration (EC50) of 759 pM and an MFI maximum value of 22200 MFI. Also, in test [3], the IC50 turned out to be 1160 pM and the “Maximum inhibition rate (%)” value was 91.3%. The molecule further yielded an EC50 in [4] of 41.2 pM. In test [6], the “EC50 (nM), PD-1 / NFAT-luciferase reporter” value is 0.759 nM and the “Maximum fluorescence value (RLU)” value was 45500 RLU.
